According to patent US11911481B2, “Compositions and methods for treating RSV-infections” (UNITED STATES GOVERNMENT AS REPRESENTED BY THE DEPARTMENT …, priority 2018, dated 2024):

What was measured:
[1] = HR2D peptide release from the outer chitosan NP-layer in PBS and in 10% FBS; format: physicochemical; conditions: within 10 minutes
Description: FIGS. 3A-C show DNA-encapsulation and HR2D-release.
The NPs were characterized for the plasmid encapsulation and integrity following synthesis, HR2D peptide release from the outer chitosan NP-layer in PBS and in 10% FBS and their cell (FIG. 3). First, chitosan-DNA nanoparticles were prepared by a complex coacervation method. In order to determine the optimal formulation, nanoparticles of different Chitosan/pDNA ratios were prepared and characterized. The binding of pDNA to chitosan for the formulations prepared herein was analyzed by gel electrophoresis.
Chitosan/pDNA NPs were coated with a liposomal layer after co-extrusion of chitosan-pDNA NPs with pre-formed liposomes. This layer ensures the stability and integrity of the plasmid DNA and the endosomal escape and also allows for functionalization of the nanoparticle surface. The liposomal layer was then coated with another layer of chitosan complexed with fusion inhibitor HR2-D peptide.

RSV rA2-L19F = assay: Inhibition of RSV rA2-L19F fusion by HR2D peptide in A549 cells; format: cell-based; conditions: A549 cells pre-treated with 5 or 20 μM 30 min before infection, MOI 0.1, 24 hours
Description: Fluorescence microscopy images of A549 cells pre-treated with 5 or 20 μM HR2D peptide 30 min before RFP-RSV-Ln19-A2 infection MOI 0.1 for 24 hours. RFP intensity quantified with ImageJ.
RFP intensity was quantified with ImageJ.

With “DACISQVNECINQSLAFICKSDELLCNT [HR2D peptide]” the “peptide released from the outer layer” value [1] was 90% and the RFP expression (RSV rA2-L19F) was “significantly lower”.
